From US20040029178A1, “Novel g protein-coupled receptor proteins and dnas thereof” (priority 2000, published 2004)
Ends that are not written are not given here. * marks the point of attachment. 125I = [125I]*

T1: TGR26, the rat-derived novel G protein-coupled receptor protein (rat, UniProt Q56UD9 1-329)
T1 construct: Expressed in CHO dhfr- cells from pAK-rGPR7; also called rat TGR26; TGR26 receptor
T1 sequence: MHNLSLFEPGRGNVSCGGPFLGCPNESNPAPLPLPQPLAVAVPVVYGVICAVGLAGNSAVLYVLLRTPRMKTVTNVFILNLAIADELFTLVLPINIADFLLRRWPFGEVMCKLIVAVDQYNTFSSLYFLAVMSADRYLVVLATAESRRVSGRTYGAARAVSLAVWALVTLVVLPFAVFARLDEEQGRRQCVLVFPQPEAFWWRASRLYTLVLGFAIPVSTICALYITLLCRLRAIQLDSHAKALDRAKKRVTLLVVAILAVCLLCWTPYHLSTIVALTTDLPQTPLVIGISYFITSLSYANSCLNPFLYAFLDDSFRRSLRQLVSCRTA


How the values were obtained:
[1] = target: T1, TGR26, the rat-derived novel G …; assay: competition with [125I-Tyr10]-hGPR8L (1-23) for membrane fraction of TGR26 expressing CHO cells
Protocol: (§1) Using [¹²⁵I-Tyr¹⁰]-hGPR8L (1-23) prepared by the method described in Reference Example 15 and a cell membrane fraction prepared from TGR26 expressing cells as described in Example 6, a receptor binding assay was carried out as follows.
(§2) Cell membrane fraction prepared from TGR26 expressing cells was diluted to various concentration with assay buffer (25 mM Tris-HCl, 5 mM EDTA, 0.05% CHAPS (3-[(3-Cholamidopropyl) Dimethyl-Ammonio]-1-Propanesulfonate), 0.1% BSA, 0.5 mM PMSF, 1 μg/ml Pepstatin, 20 μg/ml Leupeptin, 4 μg/ml E-64, pH 7.4), and 200 μl each of the diluent was dispensed into polypropilene test tube (Falcon 2053). In order to determine an amount of maximum binding, 2 μl of DMSO and 2 μl of 7 nM [¹²⁵I-Tyr¹⁰]-hGPR8L (1-23) were added to the membrane fraction solution. Further, in order to determine a non-specific binding, 2 μl of 100 μM hGPR8L (1-23)/DMSO solution and 2 μl of 7 nM [¹²⁵I-Tyr¹⁰]-hGPR8L (1-23) were added to the membrane fraction solution. The reaction was done at 25° C. for 75 minutes, and the reaction mixture was filtered by suction filtration using Whatman glassfilter (GF-F) treated with polyethyleneimine. […] After filtration, a radioactivity remaining on the filter was counted using γ-counter, and an amount of specific binding was estimated by subtracting an amount of non-specific binding from an amount of maximum binding. […]

[2] = target: T1, TGR26, the rat-derived novel G …; assay: radioligand binding to membrane fraction of TGR26 expressing CHO cells, filtration, gamma counting
Protocol: as §1, §2

IC50 [1]	binding result [2]	Binder
0.12 nM	–	WYKHVASPRYHTVGRAAGLLMGL-OH (also called human GPR8 ligand (1-23)) [human homologue of GPR8 ligand peptide consisting of 23 residues, hGPR8L (1-23)]
–	binds	WYKHVASPRY(125I)HTVGRAAGLLMGL-OH [[^125I-Tyr^10]-hGPR8L (1-23)]
